Measured values: PMC4731314 (Cell reports, 2016)
Residue numbers refer to the chain shown, from its start.

B1: full-length Imp2 purified from S. pombe (natural protein, UniProt Q10199 1-670, looked up)
chain: MSQQLSFNASSAKPDKSFSNYFWGANDEGYHALLSRFSDVKHINEELRSFYHERANIEEDYAKRMAKLSRTTFSSLETGCLKESVQVMKAEVDNMAKSHLQISQLLQDDVENAFTRYAASLKDKKKMIVSGIEKVHKDKLSKHQALVKAQDKYHYLCKKVNYYVSQQNMLFGKELEKNNAKLNKTQNAITASSSDYQSAVAAVRDSYARWTNEWRSTCDKLQDIEEERRHFLKSVMWTFTLLISRSCFNDDQACERIRKNLEQCSVSQDVLEFIDAKSTGTGIPQPPKFYDYYKGEVPDDSVELVQANFQRAQTKIENDNMPLNRPYVLSATARNESSFENTLPNTPSAIQSLTTVSSNSSQNGRSSPKKSFLSKFKLTSRPSTPNVGNTAPDALSSPRNDSPLTSAADEQMKHLSLQEEPKQNPTPAAPGAFPNSNTLPPRYNELGSLPSPNSVSFTEDSRPNVNTPSRRQQIQEEFGSVLQMENRAVSPVYDSRKNGSRSSFTLRKSRSPKRPSSSLSQNASRLPRSLTPGNLEPNYDFGVRVDPASGTAPTDDEPYTDRDSSFVDDTINTKATGNTSNRLSLPAYPTDGGDTSIDNPTSTDGQRILGYVSALYDYDAAIPEEISFRKGDTIAVLKLYEDGWWEGFVVGEDDHNRGQFPSNFVREIEV
B2: Imp2(Dimer-Dimer-4A) purified from S. pombe (natural protein, UniProt Q10199 1-670, looked up)
chain: B1 chain with K97A, Q101A, D109A, R116A

Molecular target: the molecule itself
Experiment: AUC

| Protein | binding result | stoichiometry N |
| --- | --- | --- |
| B1 | binds | – |
| B2 | – | 2 |
